System: Escherichia coli TOP10
Assay: shrunken log2 fold change of peptide-encoding DNA abundance (4.5 h post-induction vs induction); higher = less antimicrobial activity (less host growth inhibition)
Conditions: time post-induction: 4.5 h; library: site-saturation at positions 5, 18, 19, 20
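Note: peptides expressed intracellularly from a pBAD plasmid library in pooled LB shake-flask culture, induced with 0.3% L-arabinose, DNA abundance read by NGS, three biological replicates, DESeq2 with apeglm shrinkage.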

Row | Sequence | shrunken log2 fold change
1 | RRIRGRPPRLPRPRPRPWHSPRP | 0.0143
2 | RRIRARPPRLPRPRPRPPILPRP | -0.261
3 | RRIRVRPPRLPRPRPRPRGDPRP | 0.754
4 | RRIRIRPPRLPRPRPRPKHRPRP | -0.103
5 | RRIRGRPPRLPRPRPRPLHEPRP | 0.74
6 | RRIRQRPPRLPRPRPRPMRTPRP | 0.661
7 | RRIRKRPPRLPRPRPRPNQWPRP | 0.274
8 | RRIRNRPPRLPRPRPRPKASPRP | -0.127
9 | RRIRVRPPRLPRPRPRPMPTPRP | 0.282
10 | RRIRCRPPRLPRPRPRPTQTPRP | 0.286
11 | RRIRYRPPRLPRPRPRPQEIPRP | -0.507
12 | RRIRYRPPRLPRPRPRPPTQPRP | -0.056
13 | RRIRRRPPRLPRPRPRPDLCPRP | 0.00591
14 | RRIRMRPPRLPRPRPRPHSQPRP | -0.00628
15 | RRIRQRPPRLPRPRPRPSVKPRP | -0.0362
16 | RRIRNRPPRLPRPRPRPRAEPRP | 0.103
17 | RRIRWRPPRLPRPRPRPYKAPRP | 0.0233
18 | RRIRVRPPRLPRPRPRPFNWPRP | -0.498
19 | RRIRRRPPRLPRPRPRPAKQPRP | 0.136
20 | RRIRLRPPRLPRPRPRPKWYPRP | -0.299
21 | RRIRNRPPRLPRPRPRPHALPRP | 0.0517
22 | RRIRERPPRLPRPRPRPQFFPRP | -0.0736
23 | RRIRYRPPRLPRPRPRPGHRPRP | 0.0683

Row | Sequence | shrunken log2 fold change
24 | RRIRSRPPRLPRPRPRPRRKPRP | 0.207
25 | RRIRLRPPRLPRPRPRPSNDPRP | 2.11
26 | RRIRVRPPRLPRPRPRPRDDPRP | -0.104
27 | RRIRERPPRLPRPRPRPNQLPRP | -0.0673
28 | RRIRYRPPRLPRPRPRPIDEPRP | -0.438
29 | RRIRERPPRLPRPRPRPRSCPRP | 0.0568
30 | RRIRWRPPRLPRPRPRPYKVPRP | -0.482
31 | RRIRIRPPRLPRPRPRPDNLPRP | -0.00843
32 | RRIRGRPPRLPRPRPRPTAKPRP | 1.92
33 | RRIRGRPPRLPRPRPRPRTWPRP | 0.317
34 | RRIRARPPRLPRPRPRPHICPRP | -0.104
35 | RRIRGRPPRLPRPRPRPHLQPRP | 0.479
36 | RRIRCRPPRLPRPRPRPWDAPRP | -0.758
37 | RRIRMRPPRLPRPRPRPRVQPRP | 0.64
38 | RRIRMRPPRLPRPRPRPCWSPRP | 0.349
39 | RRIRSRPPRLPRPRPRPKGQPRP | 0.0791
40 | RRIRMRPPRLPRPRPRPSVQPRP | 0.296
41 | RRIRLRPPRLPRPRPRPLNWPRP | -0.0552
42 | RRIRERPPRLPRPRPRPFAEPRP | -0.326
43 | RRIRRRPPRLPRPRPRPLWAPRP | 0.501
44 | RRIRVRPPRLPRPRPRPFMQPRP | -0.285
45 | RRIRARPPRLPRPRPRPYWWPRP | -0.195
46 | RRIRMRPPRLPRPRPRPPCSPRP | 0.489

Row | Sequence | shrunken log2 fold change
47 | RRIRYRPPRLPRPRPRPDLEPRP | -0.0757
48 | RRIRERPPRLPRPRPRPQHCPRP | -0.23
49 | RRIRTRPPRLPRPRPRPYYHPRP | -0.581
50 | RRIRGRPPRLPRPRPRPQEQPRP | 0.458
51 | RRIRMRPPRLPRPRPRPKEKPRP | 0.0504
52 | RRIRVRPPRLPRPRPRPYNYPRP | -0.845
53 | RRIRNRPPRLPRPRPRPGFWPRP | 0.0198
54 | RRIRRRPPRLPRPRPRPMINPRP | -0.157
55 | RRIRMRPPRLPRPRPRPIGQPRP | 0.00911
56 | RRIRDRPPRLPRPRPRPDLDPRP | 0.632
57 | RRIRWRPPRLPRPRPRPPHYPRP | 0.24
58 | RRIRHRPPRLPRPRPRPQTGPRP | -0.169
59 | RRIRKRPPRLPRPRPRPWHAPRP | -0.0686
60 | RRIRTRPPRLPRPRPRPQAWPRP | 4.37
61 | RRIRHRPPRLPRPRPRPMYHPRP | -0.287
62 | RRIRHRPPRLPRPRPRPQFAPRP | 0.0852
63 | RRIRDRPPRLPRPRPRPQNCPRP | 0.00875
64 | RRIRNRPPRLPRPRPRPTIPPRP | -0.605
65 | RRIRGRPPRLPRPRPRPEGNPRP | 0.0816
66 | RRIRERPPRLPRPRPRPVFPPRP | 0.242
67 | RRIRIRPPRLPRPRPRPACRPRP | 0.225
68 | RRIRERPPRLPRPRPRPESNPRP | -0.65
69 | RRIRWRPPRLPRPRPRPVANPRP | 0.0636

Row | Sequence | shrunken log2 fold change
70 | RRIRVRPPRLPRPRPRPSKWPRP | -0.283
71 | RRIRYRPPRLPRPRPRPYGQPRP | -0.0112
72 | RRIRPRPPRLPRPRPRPRTPPRP | 0.536
73 | RRIRFRPPRLPRPRPRPRRHPRP | 0.822
74 | RRIRMRPPRLPRPRPRPLVQPRP | 0.199
75 | RRIRPRPPRLPRPRPRPKHKPRP | -0.0938
76 | RRIRCRPPRLPRPRPRPMVGPRP | -0.00233
77 | RRIRCRPPRLPRPRPRPPTVPRP | 0.202
78 | RRIRCRPPRLPRPRPRPYSSPRP | 0.00688
79 | RRIRVRPPRLPRPRPRPGKWPRP | -0.141
80 | RRIRCRPPRLPRPRPRPKKLPRP | 0.063
81 | RRIRIRPPRLPRPRPRPSVWPRP | -0.221
82 | RRIRERPPRLPRPRPRPVANPRP | -0.068
83 | RRIRARPPRLPRPRPRPFTKPRP | -0.295
84 | RRIRTRPPRLPRPRPRPLMNPRP | -0.852
85 | RRIRTRPPRLPRPRPRPERAPRP | 0.55
86 | RRIRNRPPRLPRPRPRPACGPRP | 0.547
87 | RRIRERPPRLPRPRPRPLHIPRP | -0.404
88 | RRIRGRPPRLPRPRPRPQWNPRP | 0.0405
89 | RRIRWRPPRLPRPRPRPMTKPRP | 0.181
90 | RRIRPRPPRLPRPRPRPAYLPRP | -0.317
91 | RRIRWRPPRLPRPRPRPNICPRP | 0.0504
